Test results from article PMC8989545.

Key:
EpCAM (on HCT116 cells) = target: T1, EpCAM (on HCT116 cells) (UniProt P16422); assay: flow cytometry on HCT116 cells; conditions: live cells, EpCAM inferred, HSA beads: DPBS + 5 mM Mg2+, room temperature, 1 h, beads blocked with BSA/yeast tRNA, 4.5 g/L glucose, 5 mM MgCl2, 0.1 mg/ml yeast tRNA, 1 mg/ml …
T1 sequence: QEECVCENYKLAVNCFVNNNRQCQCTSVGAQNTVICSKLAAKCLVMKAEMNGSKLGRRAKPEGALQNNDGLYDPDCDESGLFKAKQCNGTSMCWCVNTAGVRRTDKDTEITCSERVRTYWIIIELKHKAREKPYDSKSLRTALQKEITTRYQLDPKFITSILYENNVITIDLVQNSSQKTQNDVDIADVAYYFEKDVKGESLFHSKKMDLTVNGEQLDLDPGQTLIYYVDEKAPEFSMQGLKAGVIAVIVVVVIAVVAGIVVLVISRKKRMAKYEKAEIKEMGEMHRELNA

PTK7 (on HCT116 cells) = target: T2, PTK7 (on HCT116 cells) (UniProt Q13308); assay: flow cytometry on HCT116 cells; conditions: live cells, PTK7 inferred, HSA beads: DPBS + 5 mM Mg2+, room temperature, 1 h, beads blocked with BSA/yeast tRNA, 4.5 g/L glucose, 5 mM MgCl2, 0.1 mg/ml yeast tRNA, 1 mg/ml …
T2 sequence: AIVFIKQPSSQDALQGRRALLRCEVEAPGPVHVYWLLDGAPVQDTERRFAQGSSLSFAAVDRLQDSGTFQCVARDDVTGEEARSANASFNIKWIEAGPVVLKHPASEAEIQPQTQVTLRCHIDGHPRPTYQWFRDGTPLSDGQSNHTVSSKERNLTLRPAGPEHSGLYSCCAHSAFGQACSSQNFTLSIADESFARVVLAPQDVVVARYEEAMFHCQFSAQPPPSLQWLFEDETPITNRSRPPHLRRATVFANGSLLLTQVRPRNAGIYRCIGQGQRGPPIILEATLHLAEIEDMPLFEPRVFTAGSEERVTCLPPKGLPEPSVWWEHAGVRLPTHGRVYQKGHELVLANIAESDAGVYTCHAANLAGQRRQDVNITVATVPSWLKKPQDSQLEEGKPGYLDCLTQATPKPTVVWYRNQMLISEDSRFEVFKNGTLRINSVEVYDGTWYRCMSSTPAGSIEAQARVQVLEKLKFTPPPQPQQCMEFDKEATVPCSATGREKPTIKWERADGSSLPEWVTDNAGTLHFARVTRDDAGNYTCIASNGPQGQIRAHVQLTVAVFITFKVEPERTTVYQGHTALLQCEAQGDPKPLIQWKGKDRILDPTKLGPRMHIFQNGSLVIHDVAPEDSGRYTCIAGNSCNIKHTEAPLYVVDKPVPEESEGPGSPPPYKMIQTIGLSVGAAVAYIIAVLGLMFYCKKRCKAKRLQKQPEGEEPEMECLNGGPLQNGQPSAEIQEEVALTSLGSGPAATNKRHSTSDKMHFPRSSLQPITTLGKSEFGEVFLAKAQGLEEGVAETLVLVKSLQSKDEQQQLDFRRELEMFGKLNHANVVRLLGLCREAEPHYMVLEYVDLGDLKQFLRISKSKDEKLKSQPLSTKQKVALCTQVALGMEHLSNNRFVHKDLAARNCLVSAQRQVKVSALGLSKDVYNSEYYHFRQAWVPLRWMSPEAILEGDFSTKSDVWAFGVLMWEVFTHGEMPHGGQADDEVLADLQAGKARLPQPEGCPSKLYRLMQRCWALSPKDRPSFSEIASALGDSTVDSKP

[1] = target: human serum albumin (HSA) (Homo sapiens) (UniProt P02768); assay: flow cytometry on HSA-coated beads; conditions: HSA beads: DPBS + 5 mM Mg2+, room temperature, 1 h, beads blocked with BSA/yeast tRNA, cells: DPBS, 4.5 g/L glucose, 5 mM MgCl2, 0.1 mg/ml yeast tRNA, 1 mg/ml …
[2] = target: human serum albumin (HSA) (Homo sapiens) (UniProt P02768); assay: flow cytometry; conditions: N = artificial base F; HSA beads: DPBS + 5 mM Mg2+, room temperature, 1 h, beads blocked with BSA/yeast tRNA; cells: DPBS, 4.5 g/L glucose, 5 mM MgCl2, 0.1 mg/ml yeast tRNA, 1 mg/ml …

“CACTACAGAGGTTGCGTCTGTCCCACGTTGTCATGGGGGGTTGGCCTG [SYL3C]” gave a Kd (EpCAM (on HCT116 cells)) of 321 nM.

Work on “ATCTAACTGCTGCGCCGCCGGGAAAATACTGTACGGTTAGA [Sgc8]” yielded a Kd (PTK7 (on HCT116 cells)) of 3.2 nM.

With “NNATCTAACTGCTGCGCCGCCGGGANANTANTGTACGGTTAGANN [Sgc8-F23]” the Kd ([1]; 5 mM Mg2+, in the SYL3C section printed as 191.8 nM, N = artificial base F (3,5-bis(trifluoromethyl)benzene), 7 F) was 194 nM and the Kd (PTK7 (on HCT116 cells); N = artificial base F (3,5-bis(trifluoromethyl)benzene), 7 F) was 17.1 nM.

With “NNATCTAACTGCTGCGCCGCCGGGAAAATACTGTACGGTTAGANN [Sgc8-F20]” the Kd ([1]; N = artificial base F) was 403 nM.

In the case of “NNCACTACAGAGGTTGCGTCTGTCCCACGTTGTCATGGGGGGTTGGCCTGNN [SYL3C-F20]”, the Kd (EpCAM (on HCT116 cells); N = artificial base F) is reported as 369 nM and the Kd [2] is reported as 1090 nM.
